Read-outs that look alike come from different tables or passages of the source. Non-standard residues stand in square brackets, D forms with d. No end group written: not given here. *: point of attachment. Succinimide(1-Et,3-yl) = CCN1C(=O)CC(*)C1=O; hArg = N=C(N)NCCCC[C@H](N)C(=O)O; dNle = CCCC[C@@H](N)C(=O)O
B1: neuromedin U receptor agonist E (peptide)
peptide: Ac-F[dL]WRPRN-NH2
SMILES: CC(=O)N[C@@H](Cc1ccccc1)C(=O)N[C@H](CC(C)C)C(=O)N[C@@H](Cc1c[nH]c2ccccc12)C(=O)N[C@@H](CCCNC(=N)N)C(=O)N1CCC[C@H]1C(=O)N[C@@H](CCCNC(=N)N)C(=O)N[C@@H](CC(N)=O)C(N)=O
B2: neuromedin U receptor agonist Q (peptide)
peptide: FRVDEEFQSPFASQSRGFWLFRPR[dNle]-NH2
modifications: N-terminus assumed
SMILES: CCCC[C@@H](NC(=O)[C@H](CCCNC(=N)N)NC(=O)[C@@H]1CCCN1C(=O)[C@H](CCCNC(=N)N)NC(=O)[C@H](Cc1ccccc1)NC(=O)[C@H](CC(C)C)NC(=O)[C@H](Cc1c[nH]c2ccccc12)NC(=O)[C@H](Cc1ccccc1)NC(=O)CNC(=O)[C@H](CCCNC(=N)N)NC(=O)[C@H](CO)NC(=O)[C@H](CCC(N)=O)NC(=O)[C@H](CO)NC(=O)[C@H](C)NC(=O)[C@H](Cc1ccccc1)NC(=O)[C@@H]1CCCN1C(=O)[C@H](CO)NC(=O)[C@H](CCC(N)=O)NC(=O)[C@H](Cc1ccccc1)NC(=O)[C@H](CCC(=O)O)NC(=O)[C@H](CCC(=O)O)NC(=O)[C@H](CC(=O)O)NC(=O)[C@@H](NC(=O)[C@H](CCCNC(=N)N)NC(=O)[C@@H](N)Cc1ccccc1)C(C)C)C(N)=O
B3: neuromedin U receptor agonist D (peptide)
peptide: YF[dA]WRPRN-NH2
modifications: N-terminus assumed
SMILES: C[C@@H](NC(=O)[C@H](Cc1ccccc1)NC(=O)[C@@H](N)Cc1ccc(O)cc1)C(=O)N[C@@H](Cc1c[nH]c2ccccc12)C(=O)N[C@@H](CCCNC(=N)N)C(=O)N1CCC[C@H]1C(=O)N[C@@H](CCCNC(=N)N)C(=O)N[C@@H](CC(N)=O)C(N)=O
B4: neuromedin U receptor agonist P (peptide)
peptide: FRVDEEFQSPFASQSRGFWLFRA[hArg]N-NH2
modifications: N-terminus assumed
SMILES: CC(C)C[C@H](NC(=O)[C@H](Cc1c[nH]c2ccccc12)NC(=O)[C@H](Cc1ccccc1)NC(=O)CNC(=O)[C@H](CCCNC(=N)N)NC(=O)[C@H](CO)NC(=O)[C@H](CCC(N)=O)NC(=O)[C@H](CO)NC(=O)[C@H](C)NC(=O)[C@H](Cc1ccccc1)NC(=O)[C@@H]1CCCN1C(=O)[C@H](CO)NC(=O)[C@H](CCC(N)=O)NC(=O)[C@H](Cc1ccccc1)NC(=O)[C@H](CCC(=O)O)NC(=O)[C@H](CCC(=O)O)NC(=O)[C@H](CC(=O)O)NC(=O)[C@@H](NC(=O)[C@H](CCCNC(=N)N)NC(=O)[C@@H](N)Cc1ccccc1)C(C)C)C(=O)N[C@@H](Cc1ccccc1)C(=O)N[C@@H](CCCNC(=N)N)C(=O)N[C@@H](C)C(=O)N[C@@H](CCCCNC(=N)N)C(=O)N[C@@H](CC(N)=O)C(N)=O
B5: neuromedin U receptor agonist B (peptide)
peptide: YF[dL]WRPRN-NH2
modifications: N-terminus assumed
SMILES: CC(C)C[C@@H](NC(=O)[C@H](Cc1ccccc1)NC(=O)[C@@H](N)Cc1ccc(O)cc1)C(=O)N[C@@H](Cc1c[nH]c2ccccc12)C(=O)N[C@@H](CCCNC(=N)N)C(=O)N1CCC[C@H]1C(=O)N[C@@H](CCCNC(=N)N)C(=O)N[C@@H](CC(N)=O)C(N)=O

Assays:
[1] = target: T1, human NMUR1 (human, UniProt Q9HB89 1-426); experiment: cell-based or functional assay
T1 sequence (looked up): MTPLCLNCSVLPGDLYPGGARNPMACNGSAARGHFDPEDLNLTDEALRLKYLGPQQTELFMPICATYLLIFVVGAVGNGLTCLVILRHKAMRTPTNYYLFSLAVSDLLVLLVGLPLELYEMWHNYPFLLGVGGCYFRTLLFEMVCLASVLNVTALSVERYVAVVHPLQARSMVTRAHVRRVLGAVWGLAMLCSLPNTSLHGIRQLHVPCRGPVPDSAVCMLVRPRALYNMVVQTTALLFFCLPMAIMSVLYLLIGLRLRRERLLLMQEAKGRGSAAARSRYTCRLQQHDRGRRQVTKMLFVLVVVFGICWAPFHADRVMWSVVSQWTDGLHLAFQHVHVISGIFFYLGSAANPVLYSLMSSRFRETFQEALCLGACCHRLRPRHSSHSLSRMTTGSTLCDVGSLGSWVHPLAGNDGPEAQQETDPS

[2] = target: T2, human NMUR2 (human, UniProt Q9GZQ4 1-415); experiment: cell-based or functional assay
[3] = target: T1, human NMUR1; experiment: 125I-hNMU-25 displacement, HEK cell membranes
Experimental: (§1) Confluent cell monolayers expressing NMU receptors (the HEK cells described above) were harvested with phosphate buffered saline, collected by centrifugation, and resuspended in membrane buffer (50 mM TrisCl pH 7.4, 5 mM MgCl₂, 1× Protease Inhibitor Cocktail, 10 μM phosphoramidon). After the cell pellet was homogenized, the solution was centrifuged at 18,000 rpm for 20 minutes at 4° C. The pellet was resuspended in membrane buffer to yield a final concentration of 0.5-5 μg/μL of membrane and stored at −80° C.
(§2) Experiments were performed in assay buffer (25 mM TrisCl, pH 7.4, 10 mM MgCl₂, 2mM EDTA, 1× Protease Inhibitor Cocktail, 100 μg/mL Bacitricin, 10 μM phosphoramidon) in 200 μL volumes in a 96-well format using 2-5 μg of membrane and […] ¹²⁵I-hNMU-25 (about 12,000 cpm/well). For non-specific binding, 1 μM hNMU-25 was added. About 5 μL of peptides were added to measure antagonist activity, and the entire reaction was incubated at room temperature with shaking for 80 minutes. The reaction was terminated by rapid filtration through 0.3% poly-ethylenimine presoaked Millipore 96-well filter plates and washed with ice-cold buffer (5 mM TrisCl pH 7.4, 10 mM MgCl₂, 2.5 mM EDTA, 0.04% Triton X-100). Plates were air-dried overnight at room temperature and recovered radioactivity was determined by standard scintillation counting. IC₅₀ values were determined using GraphPad Prism software.
(§3) Concentration-response curves and radioligand-binding data were fitted using Prism (GraphPad Software). Results are summarized below in Tables 8 and 9.

[4] = target: T2, human NMUR2; experiment: 125I-hNMU-25 displacement, HEK cell membranes
Experimental: as §1, §2, §3

[5] = target: T1, human NMUR1; experiment: cell-based or functional assay; remark: listed apart in the source
[6] = target: T2, human NMUR2; experiment: cell-based or functional assay; remark: listed apart in the source
[7] = target: T1, human NMUR1; experiment: cell-based or functional assay; remark: listed apart in the source
[8] = target: T2, human NMUR2; experiment: cell-based or functional assay; remark: listed apart in the source
[9] = target: T3, mouse NMUR1-ATG (mouse, UniProt O55040 1-428); experiment: cell-based or functional assay
T3 sequence (looked up): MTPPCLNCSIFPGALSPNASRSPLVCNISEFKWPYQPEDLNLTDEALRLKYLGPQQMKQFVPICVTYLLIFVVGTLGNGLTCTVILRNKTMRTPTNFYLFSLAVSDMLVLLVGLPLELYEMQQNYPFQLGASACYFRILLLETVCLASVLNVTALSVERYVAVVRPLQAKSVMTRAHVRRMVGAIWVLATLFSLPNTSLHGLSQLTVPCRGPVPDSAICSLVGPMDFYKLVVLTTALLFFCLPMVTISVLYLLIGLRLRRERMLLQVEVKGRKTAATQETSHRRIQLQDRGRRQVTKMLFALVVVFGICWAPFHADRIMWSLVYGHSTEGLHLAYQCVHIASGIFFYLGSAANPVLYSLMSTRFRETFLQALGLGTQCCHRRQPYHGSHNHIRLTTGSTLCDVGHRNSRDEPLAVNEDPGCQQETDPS

[10] = target: mouse NMUR2 (mouse, UniProt Q8BZ39 1-395); experiment: cell-based or functional assay
[11] = target: T4, mouse NMUR1-CTG (mouse, UniProt O55040 1-428); experiment: cell-based or functional assay
T4 sequence (looked up): T3 sequence (looked up)

[12] = target: rat NMUR2 (rat, UniProt Q9ESQ4 1-395); experiment: cell-based or functional assay
[13] = target: T5, rat NMUR1-ATG (rat, UniProt Q9JJI5 1-425); experiment: cell-based or functional assay
T5 sequence (looked up): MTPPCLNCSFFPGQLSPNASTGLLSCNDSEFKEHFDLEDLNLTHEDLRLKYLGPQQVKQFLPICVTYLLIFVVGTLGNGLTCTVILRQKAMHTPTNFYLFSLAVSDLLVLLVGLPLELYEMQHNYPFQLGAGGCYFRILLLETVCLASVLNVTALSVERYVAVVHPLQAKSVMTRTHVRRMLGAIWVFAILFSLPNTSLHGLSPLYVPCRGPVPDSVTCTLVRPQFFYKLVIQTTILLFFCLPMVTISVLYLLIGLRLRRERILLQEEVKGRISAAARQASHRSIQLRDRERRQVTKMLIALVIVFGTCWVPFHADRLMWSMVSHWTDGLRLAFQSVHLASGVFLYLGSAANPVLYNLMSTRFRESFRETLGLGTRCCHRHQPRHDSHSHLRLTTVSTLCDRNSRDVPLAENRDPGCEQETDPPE

[14] = target: T1, human NMUR1; experiment: cell-based or functional assay; remark: listed apart in the source
[15] = target: T2, human NMUR2; experiment: cell-based or functional assay; remark: listed apart in the source

T2 sequence (Q9GZQ4 whole entry): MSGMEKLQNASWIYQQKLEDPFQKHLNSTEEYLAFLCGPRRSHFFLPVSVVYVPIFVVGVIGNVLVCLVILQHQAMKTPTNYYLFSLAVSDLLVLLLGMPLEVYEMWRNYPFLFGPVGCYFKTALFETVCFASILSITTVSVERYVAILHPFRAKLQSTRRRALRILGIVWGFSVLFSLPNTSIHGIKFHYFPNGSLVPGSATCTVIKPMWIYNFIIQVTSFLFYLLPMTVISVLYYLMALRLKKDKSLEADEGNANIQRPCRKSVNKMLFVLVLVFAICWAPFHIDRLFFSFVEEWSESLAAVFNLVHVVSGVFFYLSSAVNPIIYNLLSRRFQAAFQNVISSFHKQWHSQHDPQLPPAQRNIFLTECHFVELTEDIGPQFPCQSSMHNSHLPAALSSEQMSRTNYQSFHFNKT
Chain of mouse NMUR2 (Q8BZ39 whole entry): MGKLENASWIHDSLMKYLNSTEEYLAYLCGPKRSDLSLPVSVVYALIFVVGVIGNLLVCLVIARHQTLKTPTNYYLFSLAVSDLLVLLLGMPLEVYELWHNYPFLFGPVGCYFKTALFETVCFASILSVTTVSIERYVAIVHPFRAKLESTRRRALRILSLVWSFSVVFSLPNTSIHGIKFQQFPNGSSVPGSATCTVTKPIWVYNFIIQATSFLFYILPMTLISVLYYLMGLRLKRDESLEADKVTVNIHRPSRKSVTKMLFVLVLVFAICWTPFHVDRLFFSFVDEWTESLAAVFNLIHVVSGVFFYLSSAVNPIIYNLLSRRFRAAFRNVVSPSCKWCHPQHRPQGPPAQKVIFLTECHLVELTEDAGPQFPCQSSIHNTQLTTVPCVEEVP
Chain of rat NMUR2 (Q9ESQ4 whole entry): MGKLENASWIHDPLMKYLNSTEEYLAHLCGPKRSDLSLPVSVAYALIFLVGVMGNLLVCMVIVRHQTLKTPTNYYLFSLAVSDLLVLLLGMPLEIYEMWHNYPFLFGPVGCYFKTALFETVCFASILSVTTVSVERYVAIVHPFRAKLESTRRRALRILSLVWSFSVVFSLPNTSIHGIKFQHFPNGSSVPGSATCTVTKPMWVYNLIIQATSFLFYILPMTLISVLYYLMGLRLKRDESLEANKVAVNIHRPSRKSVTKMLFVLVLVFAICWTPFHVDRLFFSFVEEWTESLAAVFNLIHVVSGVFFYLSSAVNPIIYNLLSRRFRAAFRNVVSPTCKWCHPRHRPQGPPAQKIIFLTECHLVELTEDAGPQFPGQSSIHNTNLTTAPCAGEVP

| Binder | % activity [1] [%] | IC50 (nM), functional [1] [nM] | % activity [2] [%] | IC50 (nM), functional [2] [nM] | % activity (binding) [3] [%] | IC50 [3] [nM] | % activity (binding) [4] [%] | IC50 [4] [nM] | further results |
| --- | --- | --- | --- | --- | --- | --- | --- | --- | --- |
| B1 | 100 | 1.9 | 1.8 | > 1000 | 93 | 75 | 5 |  |  |
| B2 |  |  |  |  | 16 |  | 89 | 12 | % activity [5]: 0%; EC50 [5]: > 1000 nM; % activity [6]: 97%; EC50 [6]: 18.3 nM |
| FRVDEEFQSPFASQSRGYFWRPRN-NH2 [neuromedin U receptor agonist G] | 91 | 8.4 | 14 | > 1000 | 97 | 2.1 | 33 | 31 |  |
| Ac-C(Succinimide(1-Et,3-yl))FRVDEEFQSPFASQSRGYFLFRPRN-NH2 [NMU8] |  |  |  |  | 100 | 2.4 | 100 | 0.3 | % Activity (FLIPR) [7]: 99.1%; EC50 (FLIPR) [7]: 10.7 nM; % Activity (FLIPR) [8]: 100%; EC50 (FLIPR) [8]: 5.2 nM; % Activity (FLIPR) [9]: 100%; EC50 (FLIPR) [9]: 6.4 nM; % Activity (FLIPR) [10]: 100%; EC50 (FLIPR) [10]: 1.8 nM; % Activity (FLIPR) [11]: 100%; EC50 (FLIPR) [11]: 15.5 nM; % Activity (FLIPR) [12]: 94.7%; EC50 (FLIPR) [12]: 45.1 nM; % Activity (FLIPR) [13]: 97.2%; EC50 (FLIPR) [13]: 36.7 nM; % activity [14]: 100%; EC50 [14]: 1.36 nM; % activity [15]: 104%; EC50 [15]: 2.9 nM |
| B3 | 96 | 1.5 | 0 | > 1000 | 100 | 2.6 | 0 |  |  |
| B4 |  |  |  |  | 1 |  | 81 | 150 | % activity [5]: 11%; EC50 [5]: 46 nM; % activity [6]: 100%; EC50 [6]: 25 nM |
| B5 | 103 | 9 | 0 | > 1000 | 96 | 14 | 35 |  |  |
| YFGWRPRN-NH2 [neuromedin U receptor agonist C] | 87 | 1.1 | 0 | > 1000 | 100 | 0.42 | 0 |  |  |

From patent US20070244048A1 (published 2007)
